Results: patent US20040127407A1 (GREENVILLE HOSPITAL SYSTEM, published 2004)

T1: prolactin receptor (PRLR) on T-47D human breast cancer cells (human, UniProt P16471 25-622)
T1 construct: whole, on cells; Endogenous receptor on T-47D cells; also called hPRLR; PRL receptor
T1 sequence (looked up): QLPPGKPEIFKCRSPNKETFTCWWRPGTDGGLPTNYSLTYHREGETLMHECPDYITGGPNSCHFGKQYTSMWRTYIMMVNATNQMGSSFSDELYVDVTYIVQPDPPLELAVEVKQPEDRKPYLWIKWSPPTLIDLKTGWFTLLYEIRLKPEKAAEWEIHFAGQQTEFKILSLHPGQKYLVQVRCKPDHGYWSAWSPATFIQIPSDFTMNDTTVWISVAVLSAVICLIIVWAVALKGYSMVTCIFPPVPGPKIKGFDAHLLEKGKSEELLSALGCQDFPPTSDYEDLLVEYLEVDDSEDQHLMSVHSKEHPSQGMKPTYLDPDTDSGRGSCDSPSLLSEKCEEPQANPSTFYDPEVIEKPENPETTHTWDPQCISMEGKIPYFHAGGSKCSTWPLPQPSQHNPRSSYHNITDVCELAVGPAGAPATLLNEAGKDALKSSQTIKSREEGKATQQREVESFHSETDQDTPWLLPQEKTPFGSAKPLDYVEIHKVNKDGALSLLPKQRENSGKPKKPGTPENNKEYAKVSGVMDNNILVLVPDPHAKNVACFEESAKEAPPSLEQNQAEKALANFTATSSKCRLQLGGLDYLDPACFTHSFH


Target: T1, prolactin receptor (PRLR) on T-47D …
Test: competitive radioreceptor binding assay on T-47D cells, 125I-hPRL tracer
Procedure: Radioreceptor binding assays were performed as previously described (Chen et al., 1991; Appendix B). Briefly, T-47D cells will be grown in six-well tissue culture plates until 90% confluent (˜10⁵ cells/well). Monolayers of cells were starved in serum-free RPMI-1640 medium for 2h. The cells were then incubated at room temperature for two hours in serum-free RPMI-1640 containing 8×10⁴ cpm ¹²⁵I hPRL (Specific Activity=30 μCi/μg; NEN Dupont, Boston, Mass.) with or without hPRL, hPRL-G129R, endostatin, or GEFP at various concentrations. Cells were then washed three times in serum-free RPMI-1640 and solubilized in 0.5 ml of 0.1N NaOH/1% SDS, and the bound radioactivity was determined by a Gamma counter (ICN Biomedical, model 4/600plus; Costa Mesa, Calif.).

binding result	Binder
binds	hPRL-G129R (ligand, also called hPRLA; prolactin antagonist) MLPICPGGAARCQVTLRDLFDRAVVLSHYIHNLSSEMFSEFDKRYTHGRGFITKAINSCHTSSLATPEDKEQAQQMNQKDFLSLIVSILRSWNEPLYHLVTEVRGMQEAPEAILSKAVEIEEQTKRLLERMELIVSQVHPETKENEIYPVWSGLPSLQMADEESRLSAYYNLLHCLRRDSHKIDNYLKLLKCRIIHNNNC
binds	G129R-endostatin fusion protein (GEFP) (other, The C-terminus of G129R is fused to the N-terminus of endostatin; E. coli product with an extra Met at the N-terminus; also called hPRL-G129R-Endo fusion protein) MLPICPGGAARCQVTLRDLFDRAVVLSHYIHNLSSEMFSEFDKRYTHGRGFITKAINSCHTSSLATPEDKEQAQQMNQKDFLSLIVSILRSWNEPLYHLVTEVRGMQEAPEAILSKAVEIEEQTKRLLERMELIVSQVHPETKENEIYPVWSGLPSLQMADEESRLSAYYNLLHCLRRDSHKIDNYLKLLKCRIIHNNNCGSHSHRDFQPVLHLVALNSPLSGGMRGIRGADFQCFQQARAVGLAGTFRAFLSSRLQDLYSIVRRADRAAVPIVNLKDELLFPSWEALFSGSEGPLKPGARIFSFDGKDVLRHPTWPQKSVWHGSDPNGRRLTESYCETWRTEAPSATGQASSLLGGRLLGQSAASCHHAYIVLCIENSFMTASK
binds	human prolactin (hPRL) (ligand, UniProt P01236 29-227, looked up) LPICPGGAARCQVTLRDLFDRAVVLSHYIHNLSSEMFSEFDKRYTHGRGFITKAINSCHTSSLATPEDKEQAQQMNQKDFLSLIVSILRSWNEPLYHLVTEVRGMQEAPEAILSKAVEIEEQTKRLLEGMELIVSQVHPETKENEIYPVWSGLPSLQMADEESRLSAYYNLLHCLRRDSHKIDNYLKLLKCRIIHNNNC
